The source of these data is patent publication US20230338431.

In this data set the target is cAMP response element-binding protein 1 (CREB1) (UniProt P16220).
Chain of cAMP response element-binding protein 1 (CREB1) (P16220 whole entry): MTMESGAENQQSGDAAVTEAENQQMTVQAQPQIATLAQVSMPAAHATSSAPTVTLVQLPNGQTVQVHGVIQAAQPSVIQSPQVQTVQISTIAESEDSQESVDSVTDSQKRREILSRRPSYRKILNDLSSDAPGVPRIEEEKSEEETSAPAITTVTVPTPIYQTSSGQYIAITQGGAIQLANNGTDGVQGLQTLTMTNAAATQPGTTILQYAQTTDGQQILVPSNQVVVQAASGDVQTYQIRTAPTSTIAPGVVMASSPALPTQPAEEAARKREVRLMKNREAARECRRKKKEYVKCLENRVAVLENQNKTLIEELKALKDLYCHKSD

As for protein kinase B (AKT) subunit AKT1, the “p-CREB1 expression after siRNA against AKT1, AKT2 and AKT3, immunoblotting assay” value was “only AKT1 phosphorylated and activated its downstream effector cAMP response element-binding protein 1 (CREB1)”.
